For 12 molecules, EC50 results are on record in patent US20130195901A1 (published 2013).

Test [1] addresses T1, HLA-A*0201 class I monomer of the iTopia Epitope Discovery System. The test is described as follows: iTopia binding ED50.
Test [2] concerns the target T1, HLA-A*0201 class I monomer of the …. In words: iTopia binding ED50. This is another data set of the same source.
Test [3] has the same target. The test is described as follows: iTopia binding ED50. The source holds these as a separate data set.
For test [4] the target is unchanged. The test is described as follows: iTopia binding ED50. The source holds these as a separate data set.
Test [5] shares this target. In words: iTopia binding ED50. The source holds these as a separate data set.
Test [6] has the same target. The test is described as follows: iTopia peptide binding (ED50).

For GLPSIPVHSI [PSMA288-297 analog, Ser at PΩ-1], the response in test [1] was half-maximal at 447 nM (EC50).

ALPSIPVHPV [PSMA288-297 analog, Ala at P1 and Val at PΩ] displayed an EC50 in test [2] of 5970 nM.

In test [3], GQPSIPVHPI [PSMA288-297 analog, Gln at P2] showed an EC50 of 669 nM. That is a sub-micromolar value.

As for GLPSIPVHPL [PSMA288-297 analog, Leu at PΩ], the EC50 in test [1] amounted to 1170 nM.

As for GLPSIPVHPI [PSMA288-297], the EC50 in test [4], in test [3] and in test [5] was 1330 nM each time.

Consider GLPSIPVHAI [PSMA288-297 analog, Ala at PΩ-1], for which, in test [1], a half-maximal response (EC50) required 816 nM.

As for AVPSIPVHPV [PSMA288-297 analog, Ala at P1, Val at P2, Val at PΩ], the EC50 in test [5] is 1080 nM.

Turning to GMPSIPVHPI [PSMA288-297 analog, Met at P2], the EC50 in test [3] worked out at 1070 nM.

In test [3], GVPSIPVHPI [PSMA288-297 analog, Val at P2] registered an EC50 of 2410 nM.

ALWSIPVHPV [PSMA288-297 analog, Ala at P1, Trp at P3, Val at PΩ] displayed an EC50 in test [6] of 494 nM.

GLPSIPVHTI [PSMA288-297 analog, Thr at PΩ-1] came in with an EC50 in test [1] of 483 nM.

Molecule GLPSIPVHLI [PSMA288-297 analog, Leu at PΩ-1] yielded an EC50 in test [1] of 586 nM. This EC50 and that of the molecule before are within 1.5-fold of each other.
